# In patent publication US6537804B1, “BCR-ABL directed compositions and uses for inhibiting Philadelphia chromesome stimulated cell growth” (Board of Regents, The University of Texas Systems, priority 1995, dated 2003):
# Positions count from the first letter of the chain named. Names may count otherwise. Non-standard residues stand in square brackets, D forms with d. No end group written: not given here. pY = N[C@@H](Cc1ccc(OP(=O)(O)O)cc1)C(=O)O
# T1: amino terminal SH2 domain of Ras Gap (Homo sapiens, UniProt P20936)
# T1 construct: the amino terminal SH2 domain of Ras Gap was expressed as a fusion protein containing the glutathione S transferase protein (GST); made in house
# T1 sequence (P20936 181-272 limits assumed): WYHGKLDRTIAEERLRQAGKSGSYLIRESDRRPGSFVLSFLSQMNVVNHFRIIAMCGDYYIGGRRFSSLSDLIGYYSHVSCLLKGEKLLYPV
# T2: c-Abl SH2 (Mus musculus, UniProt P00520)
# T2 construct: The inventors performed similar studies with the SH2 domain of Abl; made in house
# T2 sequence (P00520 127-217 limits assumed): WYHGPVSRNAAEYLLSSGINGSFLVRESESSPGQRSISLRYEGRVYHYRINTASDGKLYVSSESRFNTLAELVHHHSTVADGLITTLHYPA
# T3: P160^BCR (Homo sapiens, UniProt P11274, Y360F)
# T3 construct: The original human full length BCR cDNAs were obtained from Dr. John Groffen; expressed in transfected cells; host or cells: COS-1
# T3 sequence (P11274 1-1271 Y360F): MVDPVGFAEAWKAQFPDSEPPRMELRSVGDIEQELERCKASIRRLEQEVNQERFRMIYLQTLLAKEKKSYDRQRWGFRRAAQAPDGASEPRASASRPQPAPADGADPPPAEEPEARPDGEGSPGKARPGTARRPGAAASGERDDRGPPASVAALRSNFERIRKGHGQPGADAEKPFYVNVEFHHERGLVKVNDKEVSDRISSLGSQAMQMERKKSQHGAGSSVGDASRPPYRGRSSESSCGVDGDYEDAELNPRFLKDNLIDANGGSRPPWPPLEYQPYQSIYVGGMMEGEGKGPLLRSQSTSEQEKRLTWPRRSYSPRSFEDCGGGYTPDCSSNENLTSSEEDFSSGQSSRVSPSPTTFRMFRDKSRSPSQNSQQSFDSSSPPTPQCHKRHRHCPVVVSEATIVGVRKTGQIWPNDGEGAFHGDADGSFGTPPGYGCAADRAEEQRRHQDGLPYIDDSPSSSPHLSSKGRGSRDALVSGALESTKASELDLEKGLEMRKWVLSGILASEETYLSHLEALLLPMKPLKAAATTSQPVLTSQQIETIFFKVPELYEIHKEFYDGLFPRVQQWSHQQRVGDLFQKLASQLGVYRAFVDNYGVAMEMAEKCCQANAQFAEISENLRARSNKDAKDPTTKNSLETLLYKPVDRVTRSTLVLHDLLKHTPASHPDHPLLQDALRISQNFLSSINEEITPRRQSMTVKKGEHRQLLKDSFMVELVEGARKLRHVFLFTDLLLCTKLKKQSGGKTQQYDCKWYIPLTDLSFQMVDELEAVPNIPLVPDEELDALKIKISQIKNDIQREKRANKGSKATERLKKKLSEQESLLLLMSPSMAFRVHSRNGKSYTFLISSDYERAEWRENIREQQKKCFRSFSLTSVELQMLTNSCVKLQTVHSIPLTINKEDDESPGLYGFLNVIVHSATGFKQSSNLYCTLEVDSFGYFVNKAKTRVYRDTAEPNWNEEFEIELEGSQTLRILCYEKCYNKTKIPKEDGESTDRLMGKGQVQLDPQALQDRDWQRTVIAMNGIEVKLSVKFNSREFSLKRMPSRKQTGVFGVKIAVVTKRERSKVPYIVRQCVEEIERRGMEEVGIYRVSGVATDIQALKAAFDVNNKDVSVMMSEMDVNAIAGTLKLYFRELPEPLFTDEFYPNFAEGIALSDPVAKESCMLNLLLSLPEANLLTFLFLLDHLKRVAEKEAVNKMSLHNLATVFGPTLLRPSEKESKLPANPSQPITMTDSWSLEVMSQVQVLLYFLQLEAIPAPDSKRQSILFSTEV
# B1: wild type p160 PCR: wild type full length human p160 BCR tyrosine phosphorylated by p145 c-ABL(1b) (protein)
# chain: T3 sequence (P11274 1-1271 Y360F) with F360Y
# B2: Y360F Bcr mutant: P160 BCR with tyrosine 360 to phenylalanine mutation, expressed in COS-1 cells (protein, UniProt P11274 1-1271, looked up, variant Y360F)
# Breakpoint cluster region …: T3 sequence (P11274 1-1271 Y360F)
# B3: p160 BCR lacking tyrosine 177: tyrosine 177 to phenylalanine mutant of p160 BCR (protein)
# chain: T3 sequence (P11274 1-1271 Y360F) with Y177F, F360Y
# Columns and labels:
# [1] = target: T1, amino terminal SH2 domain of Ras Gap; assay: Binding of phosphotyrosine tryptic peptides of Bcr-Abl to GST-Gap SH2; conditions: phosphotyrosine tryptic peptides of p210 Bcr-Abl; no binding to GST
# From the text: The inventors have conducted studies in which the amino terminal SH2 domain of Ras Gap was expressed as a fusion protein containing the glutathione S transferase protein (GST). These studies involve mixing GST-Gap SH2 with phosphotyrosine tryptic peptides of Bcr-Abl.
# c-Abl SH2 = target: T2, c-Abl SH2; assay: Binding of phosphotyrosine tryptic peptides of Bcr-Abl to GST-Abl SH2; conditions: phosphotyrosine tryptic peptides of p210 Bcr-Abl; no binding to GST
# From the text: FIG. 10A and FIG. 10B show an absorbed tryptic map of p210. GST-Abl SH2 binds phosphotyrosine tryptic peptide 3, which contains tyrosine 283. p210 Bcr-Abl labeled in the in vitro kinase assay from K562 cells was purified on SDS gels, digested with trypsin and the digest was split in two parts. One was absorbed with GST (FIG. 10A) and the other with GST-Abl SH2 (FIG. 10B). […] The dashed circles identify peptides lacking in the GST-Abl SH2 absorbed fractions.
# The inventors performed similar studies with the SH2 domain of Abl. These were performed with a mouse c-Abl SH2 sequence, which differs by only two amino acids from the human sequence within the SH2 domain.
# SH2 domain of Grb2 = SH2 domain of Grb2 (Homo sapiens, UniProt P62993); assay: Binding of Bcr peptide to Grb2; conditions: tyrosine 177 phosphorylated peptide
# SH2 domain of Grb2, sequence (P62993 whole entry, the tested form may be a part): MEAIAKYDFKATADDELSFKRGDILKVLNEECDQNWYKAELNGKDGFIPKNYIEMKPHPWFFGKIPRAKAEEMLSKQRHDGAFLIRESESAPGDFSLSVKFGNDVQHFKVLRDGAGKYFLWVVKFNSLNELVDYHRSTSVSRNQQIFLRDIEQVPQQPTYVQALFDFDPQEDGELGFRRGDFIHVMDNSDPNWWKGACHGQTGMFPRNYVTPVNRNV
# simian Grb2 protein = assay: Co-immunoprecipitation of Grb2 with p160 BCR from COS1 cells, anti-Grb2 Western blotting; type: binding; conditions: COS1 cells coexpressing p145 c-ABL(1b)
# Procedure: Anti-Grb2 Western blotting was performed on anti-BCR (1256-1271) antibody immunoprecipitates of lysates from COS1 cells cotransfected p145 c-ABL with either wild type p160 BCR (lanes 1 and 2) or p160 BCR (F177) (lanes 3 and 4) mutant. Lanes 2 and 4 are immunoprecipitation with pre-blocked anti-BCR (1256-1271) antibody. COS1 cells express an endogenous simian Grb2 protein detected by Western blotting (FIG. 18, lane 1). P160 BCR and p145 c-ABL(1b) were separately or simultaneously expressed in COS1 cells. Two days after transfection, cells were harvested. The cell lysates were clarified by ultracentrifugation and the supernatants were incubated with either anti-BCR c-terminal (1256-1271) antibody (FIG. 18, lanes 2, 4 and 6) or peptide preblocked antibody (FIG. 18, lanes 3, 5 and 7). The immunoprecipitated proteins were then fractionated by a 10% polyacrylamide SDS PAGE and then transferred to a p-immoblin membrane. The membrane was then blotted by an anti-Grb2 antibody (FIG. 18). In this study, p145 c-ABL was coexpressed with either wild type p160 BCR or the mutant p160 BCR(F177) in COS1 cells. Cell lysates were subjected to immunoprecipitation by anti-BCR C-terminal (1256-1271) antibody and the immunoprecipitates were analyzed by Western blotting with an anti-Grb2 antibody.
# casein = assay: Immune complex kinase assay of mutant P160 BCR, transphosphorylation of casein; type: biochemical
# From the text: (§1) Mutant forms of P160^BCR were expressed in COS-1 cells and tested for serine/threonine kinase activities in immune complex kinase assays.
# (§2) Using the intensities of the P160^BCR bands as an indication of the amount of active P160^BCR in the immune complex and the intensities of the casein bands as a measure of transphosphorylation activity, the transphosphorylation activity of the Y360F Bcr mutant was reduced about sevenfold, compared with that of the wild type. Similarly, the Y360F Bcr mutant was also defective in transphosphorylating another exogenous substrate, histone H1.
# The amounts of Bcr within these immune complexes were quantitated in two ways. In a first method, the amounts of Bcr mutants would be underestimated by about 10%, compared with that of the wild type. On the basis of these measurements, the specific activity of transkinase activity (casein intensity/P160^BCR intensity) of the Y360F Bcr mutant (0.03) was reduced more than 20-fold in this study, compared with that of the wild type.
# The second method of estimating the amounts of P160^BCR in immune complexes involved the Western blotting of these immune complexes with an anti-Bcr antibody. The specific activity of Y360F was reduced by about sixfold. […] By using autophosphorylation of the Bcr protein as a measure of its relative amount, the reduction of Bcr's transkinase by the Y360F mutation was about sevenfold, confirming the results obtained by the Western blot method.
# histone H1 = assay: Immune complex kinase assay of mutant P160 BCR, transphosphorylation of histone H1; type: biochemical
# From the text: as §1, §2
# P160^BCR = target: T3, P160^BCR; assay: Immune complex kinase assay of mutant P160 BCR, autophosphorylation; type: biochemical
# From the text: as §1
# [2] = first method of quantitating Bcr in immune complexes
molecule,measurement,setting,value
"FLKDNLIDANGGSRPPWPPLEYQPYQSIYVGGMMEGEGK (also: phosphotyrosine, position not given here) [#3, phosphotyrosine tryptic peptide 3 of p210 Bcr-Abl]",Binding to GST-Ras Gap SH2 fusion protein,[1],specifically bound
same,Binding to GST-Abl SH2,c-Abl SH2,bind
GHGQPGADAEKPFpY^177VNVE (GHGQPGADAEKPF[pY]VNVE) [Bcr Peptide 164-181],Binding to the SH2 binding site on Grb2,SH2 domain of Grb2,binds
same,Binding to the SH2 binding site on Grb2,SH2 domain of Grb2; listed as SEQ ID NO:8,strongly binds
"NSLETLLYK (NSLETLL[pY]K) [#8, phosphotyrosine tryptic peptide 8 of p210 Bcr-Abl, outside of the first exon]",Binding to GST-Ras Gap SH2 fusion protein,[1],specifically bound
same,Binding to GST-Abl SH2,c-Abl SH2,bind
B1,Co-immunoprecipitation of simian Grb2 protein by anti-BCR C-terminal (1256-1271) antibody,simian Grb2 protein,bind specifically
B2,Reduction of specific activity compared with wild type,casein; P160 BCR amount by Western blotting of immune complexes with anti-Bcr antibody,about sixfold
same,"Reduction of transphosphorylation activity compared with wild type, relative to P160 BCR autophosphorylation band intensity",casein; casein band intensity / P160 BCR band intensity,about sevenfold
same,Reduction of specific transkinase activity compared with wild type,casein; [2],more than 20 fold
same,Specific activity of transkinase activity (casein intensity/P160^BCR intensity),casein; [2],0.03
same,Ability to transphosphorylate casein compared with wild-type Bcr,casein; mutant P160 BCR expressed in COS-1 cells,severely inhibited
same,Transphosphorylation of histone H1,histone H1,defective
same,P160^BCR autophosphorylation,P160^BCR,not detectably altered
B3,Co-immunoprecipitation of simian Grb2 protein by anti-BCR C-terminal (1256-1271) antibody,simian Grb2 protein,much reduced level
